Test: Differential scanning calorimetry of peptide and particles
Format: physicochemical
Conditions: normal saline, peptide 1.11 mg/ml, scanned 20° C. to 130° C.
Protocol: Differential scanning calorimetry is used to study the unfolding events associated with the peptide and particles. This technique is used to measure the amount of heat required to increase the temperature of the sample and reference, resulting in peaks at phase transition temperatures at which more heat is required by the samples to be maintained at the same temperature as the reference. In case of proteins the melting temperatures are determined at which half of the protein exists in an unfolded state.
The peptide of SEQ ID NO: 1 is used to form particles at peptide to lipid (POPC) molar ratios of 1:1.75, 1:3 and 1:7, the particles with peptide at concentration of 1.11 mg/ml and lipid at 0.55 mg/ml are used. The peptide alone and lipid alone are used as controls and the samples are scanned from 20° C. to 130° C.

With “DWLKAFYDKVAEKLKEAFLA [peptide SEQ ID NO: 1, amphipathic peptide]” the phase transition was 50 °C.

From US20110250237A1, “IMMUNOGENIC AMPHIPATHIC PEPTIDE COMPOSITIONS” (priority 2008, published 2011)
